# Experimental data taken from patent publication US20130196320A1, “METHOD FOR IMPROVING CLEAVAGE OF DNA BY ENDONUCLEASE SENSITIVE TO METHYLATION” (CELLECTIS, priority 2010, published 2013).
# B1: I-CreI: wild-type I-CreI meganuclease (… homing endonuclease), SEQ ID NO: 1, recombinant Cterm His-tag (protein, listed as Chlamydomonas reinhardtii)
# chain: MNTKYNKEFLLYLAGFVDGDGSIIAQIKPNQSYKFKHQLSLTFQVTQKTQRRWFLDKLVDEIGVGYVRDRGSVSDYILSEIKPLHNFLTQLQPFLKLKQKQANLVLKIIEQLPSAKESPDKFLEVCTWVDQIAALNDSKTRKTTSETVRAVLDSLSEKKKSSP
# modifications: C-terminal His-tag
# B2: ADCY9: engineered meganuclease (SEQ ID NO: 3) designed to cleave adenylate cyclase 9 gene (protein)
# chain: MANTKYNEEFLLYLAGFVDGDGSIIAQIKPNQSYKFKHQLSLTFRVTQKTQRRWFLDKLVDEIGVGYVRDSGSVSNYDLSEIKPLHNFLTQLQPFLELKQKQANLVLKIIEQLPSAKESPDKFLEVCTWVDQVAALNDSKTRKTTSETVRAVLDSLSEKKKSSPAAGGSDKYNQALSKYNQALSKYNQALSGGGGSNKKFLLYLAGFVDSDGSIIAQIKPDQSYKFKHQLGLTFQVTQKTQRRWFLDKLVDRIGVGYVRDRGSVSDYILSEIKPLHNFLTQLQPFLKLKQKQANLVLKIIEQLPSAKESPDKFLEVCTWVDQVAALNDSKTRKTTSETVRAVLDSLSEKKKSSP
# B3: XPC4: engineered meganuclease (SEQ ID NO: 2) designed to cleave xeroderma pigmentosum group C gene (XPC) (protein)
# chain: MANTKYNEEFLLYLAGFVDGDGSIIAQIKPNQSHKFKHALQLTFKVTQKTQRRWFLDKLVDEIGVGYVQDSGSVSNYILSEIKPLHNFLTQLQPFLELKQKQANLALKIIEQLPSAKESPDKFLEVCTWVDQVAALNDSKTRKTTSETVRAVLDSLSEKKKSSPAAGGSDKYNQALSKYNQALSKYNQALSGGGGSNKKFLLYLAGFVDSDGSIIAQIKPNQSHKFKHQLSLAFQVTQKTQRRWFLDKLVDRIGVGYVRDRGSVSDYILSKIKPLHNFLTQLQPFLKLKQKQANLVLKIIEQLPSAKESPDKFLEVCTWVDQVAALNDSKTRKTTSETVRAVLDSLSEKKKSSP
# Assays:
# [1] = tested on: ADCY9 endogenous recognition site in 293H cells; test: Meganuclease-induced mutagenesis assay at ADCY9 recognition site; format: cell-based, human
# Description: The human 293H cells (ATCC) were plated at a density of 1.2×10^6 cells per 10 cm dish in complete medium (DMEM supplemented with 2 mM L-glutamine, penicillin (100 IU/ml), streptomycin (100 μg/ml), amphotericin B (Fongizone: 0.25 μg/ml, Invitrogen-Life Science) and 10% FBS). The cells were pre-treated with 5-aza-deoxycytidine at 0.2 μM or 1 μM, 48 hours before transfection and the treatment was maintained 48 hours post-transfection. The medium was changed every day. The cells were transfected with 5 μg of DNA plasmids encoding meganuclease using Lipofectamine 2000 transfection reagent (Invitrogen) according to the manufacturer's protocol.
# The efficiency of the meganuclease to promote mutagenesis at its endogenous recognition site was evaluated by sequencing the DNA surrounding the meganuclease cleavage site.
# Two days post-transfection, genomic DNA was extracted. 200 ng of genomic DNA were used to amplify (PCR amplification) the endogenous locus surrounding the meganuclease cleavage site. PCR amplification is performed to obtain a fragment flanked by specific adaptor sequences [adaptor A: 5′-[…]-NNNN-3′ (SEQ ID NO: 46) and adaptor B, 5′-[…]-3′ (SEQ ID NO: 47)] provided by the company offering sequencing service (GATC Biotech AG, Germany) on the 454 sequencing system (454 Life Sciences). The primers sequences used for PCR amplification were: ADCY9_F3: 5′-[…]-NNNN-[…]-3′ (SEQ ID NO: 48) and ADCY9_R3: 5′-[…]-[…]-3′ (SEQ ID NO: 49). Sequences specific to the locus are underlined. The sequence NNNN in primer F1 is a Barcode sequence (Tag) needed to link the sequence with a PCR product. The percentage of PCR fragments carrying insertion or deletion at the meganuclease cleavage site is related to the mutagenesis induced by the meganuclease through NHEJ pathway in a cell population, and therefore correlates with the meganuclease activity at its endogenous recognition site. 5000 to 10000 sequences were analyzed per conditions.
# [2] = tested on: XPC4 target locus in 293H cells; test: Meganuclease-induced mutagenesis at XPC4 target locus by deep sequencing, 5-aza-2-deoxycytidine treatment; format: cell-based, human
# Description: FIG. 10: Frequencies of mutagenesis events measured by deep sequencing. Cells were pre-treated with 5-aza-2-deoxycytidine at 0.2 μM or 1 μM 48 hours before transfection with XPC4 meganuclease or empty vector. The treatment was maintained 48 hours post-transfection. Two days post-transfection, the genomic DNA was extracted and a PCR with primers surrounding target site was performed. The results were expressed as a percentage of PCR fragments containing a mutation.
# The human 293H cells (ATCC) were plated at a density of 1.2×10^6 cells per 10 cm dish in complete medium (DMEM supplemented with 2 mM L-glutamine, penicillin (100 IU/ml), streptomycin (100 μg/ml), amphotericin B (Fongizone: 0.25 μg/ml, Invitrogen-Life Science) and 10% FBS) supplemented with 5-aza-deoxycytidine. The next day, cells were transfected with 3 μg of meganuclease expression vector in the presence of 5-aza-deoxycytidine and Lipofectamine 2000 transfection reagent (Invitrogen) according to the manufacturer's protocol.
# Cells were pre-treated with 5-aza-deoxycytidine at 0.2 μM or 1 μM 48 hours before transfection and the treatment was maintained 48 hours post-transfection. As a control, cells not treated with 5-aza-2-deoxycytidine (NT) were used. Extraction of genomic DNA was performed 48 hours after transfection.
# After genomic DNA extraction, the XPC4 target locus was amplified with specific primers flanked by specific adaptator needed for HTS sequencing on the 454 sequencing system (454 Life Sciences)
# 5000 to 10 000 sequences per sample were analyzed.
# [3] = tested on: random target (stretch of 12 GA repeats); test: In vitro single turn over cleavage assay with random target; format: biochemical
# [4] = target: random target (stretch of 12 GA repeats); test: In vitro binding assay with random target
# Description: Fluorescein labeled C1234 oligonucleotides were synthesized and HPLC-purified by Eurogentec. To prepare C 1234 duplex corresponding to I-Cre I double strand DNA wild type target, C1234 forward (SEQ ID NO: 31, “a” strand below) labeled with Fluorescein on its 5′ end was mixed with 1 equivalent of C1234_reverse (SEQ ID NO: 32, “b” strand below) in 100 mM Tris-HCl, 50 mM EDTA, 150 mM NaCl, pH8. The mixture was heated to 95° C. for 2 min and then cooled down to 25° C. over 1 hour. C1234 duplex was eventually purified by anion exchange chromatography using a miniQ PE column (GE healthcare) pre-equilibrated with buffer A (20 mM Tris-HCl, pH7.4). Single stranded oligonucleotides and other contaminants were first discarded using a 0 to 360 mM NaCl step gradient and elution of pure C1234 duplex was performed with a 360-1000 mM NaCl linear gradient (5 column volumes). C 1234 duplex and fluorescein final concentrations were assessed by spectrophotometry using their respective extinction coefficients ε260nm=62900 M^−1 cm^−1 and ε495nm=83000 M^−1 cm^−1. As expected, a ratio [C1234 duplex]/[fluorescein]˜1 was obtained. […] After 30 minutes incubation, the fluorescence anisotropy of the mixture was recorded with a Pherastar Plus (BMG Labtech) operating in fluorescence polarization end point mode with excitation and emission wavelengths set to 495 and 520 nm respectively. Apparent dissociation constants were determined by fitting raw data by an hyperbolic function (Ax=(A∞*[Meganuclease])/(Kd+[Meganuclease]) with Ax, the fluorescence anisotropy value obtained at a given meganuclease concentration, A∞, the fluorescence anisotropy value obtained at saturating concentration of meganuclease and Kd the dissociation constant of the equilibrium studied).
molecule,measurement,setting,value
"Nc1ncn([C@H]2C[C@H](O)[C@@H](CO)O2)c(=O)n1 [5-aza-2′deoxycytidine, reference compound]","mutagenesis, PCR fragments carrying a mutation","[1]; Empty vector, 0.2 μM 5-aza-2′-deoxycytidine",0.03%
same,"mutagenesis, PCR fragments carrying a mutation","[1]; Empty vector, 1 μM 5-aza-2′-deoxycytidine",0.03%
same,mutagenesis,"[2]; empty vector, 1 μM of 5-aza-2′deoxycytidine",low or absent
B1,kcat,[3],<1.7e-06 s⁻¹
same,Kd,[4],> 1000 nM
B2,kcat,[3],<1.7e-06 s⁻¹
same,"mutagenesis, PCR fragments carrying a mutation","[1]; ADCY9 meganuclease, 0 μM 5-aza-2′-deoxycytidine",0.16% ± 0.06
same,"mutagenesis, PCR fragments carrying a mutation","[1]; ADCY9 meganuclease, 0 μM 5-aza-2′-deoxycytidine, listed as ADCY9 meganuclease",0.16%±0.06
same,"mutagenesis, PCR fragments carrying a mutation","[1]; ADCY9 meganuclease, 0.2 μM 5-aza-2′-deoxycytidine",0.48% ± 0.01
same,"mutagenesis, PCR fragments carrying a mutation","[1]; ADCY9 meganuclease, 1 μM 5-aza-2′-deoxycytidine",0.36%
same,mutations,"[1]; ADCY9 meganuclease, samples treated with 5-aza-2′deoxycytidine, n=2",up to 0.48%±0.01
same,Kd,[4],> 1000 nM
B3,kcat,[3],<1.7e-06 s⁻¹
same,Kd,[4],> 1000 nM
same,PCR fragments carrying a mutation,"[2]; XPC4 meganuclease, absence of 5-aza-2′deoxycytidine",0.2-0.5%
same,mutations,"[2]; XPC4 meganuclease, samples treated with 5-aza-2′deoxycytidine",up to 7.6%
